From patent EP4471049A1 (Zealand Pharma A/S, priority 2023, dated 2024)
Where two headings read alike, the source gives them in different places. *1 amine or outer side, *2 acyl side, *3 side chain or, on linkers, in order; H or OH if unused. Bridges are numbered along the chain shown (N, C = ends). [ ]: non-standard residue; d: D form. The star is where a group is joined. 4‑Aminomethyl‑phenylacetyl = 4-aminomethyl-phenylacetyl unit, its amine closes the lactam, O=C(Cc1ccc(CN[*:1])cc1)[*:2]; NH(4-(3-pyridyl)butyl) = c1cncc(CCCCN*)c1; NH(2-(3-pyridyl)ethyl) = c1cncc(CCN*)c1; 2Nal = N[C@@H](Cc1ccc2ccccc2c1)C(=O)O; AEF = NCCOc1ccc(C[C@H](N)C(=O)O)cc1; 3Pal = N[C@@H](Cc1cccnc1)C(=O)O; d3Pal = N[C@H](Cc1cccnc1)C(=O)O; αMeL = CC(C)C[C@](C)(N)C(=O)O; Dab = NCC[C@H](N)C(=O)O

T1: human IL-23R endogenously expressed on DB cells (human, UniProt Q5VWK5 24-629)
T1 sequence (looked up): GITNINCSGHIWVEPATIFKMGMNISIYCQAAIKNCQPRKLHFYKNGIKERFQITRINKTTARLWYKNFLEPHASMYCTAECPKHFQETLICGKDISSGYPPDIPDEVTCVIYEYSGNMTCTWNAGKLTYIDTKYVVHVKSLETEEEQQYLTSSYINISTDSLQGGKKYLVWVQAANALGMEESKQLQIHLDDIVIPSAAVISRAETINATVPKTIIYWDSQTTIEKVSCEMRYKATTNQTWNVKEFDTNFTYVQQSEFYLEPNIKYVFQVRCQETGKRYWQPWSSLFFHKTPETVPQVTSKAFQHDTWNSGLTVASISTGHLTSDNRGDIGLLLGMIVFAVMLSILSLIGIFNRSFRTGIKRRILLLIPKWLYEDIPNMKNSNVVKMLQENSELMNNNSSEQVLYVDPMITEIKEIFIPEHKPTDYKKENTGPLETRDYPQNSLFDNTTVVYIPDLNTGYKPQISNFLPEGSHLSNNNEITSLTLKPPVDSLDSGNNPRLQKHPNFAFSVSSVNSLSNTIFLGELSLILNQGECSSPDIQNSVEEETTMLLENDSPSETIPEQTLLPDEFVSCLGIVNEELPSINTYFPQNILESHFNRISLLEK

T2: Nluc-IL23R fusion protein (human, UniProt Q5VWK5 22-629)
T2 construct: range 22-629; expressed with a secretion signal in HEK293 cells; used as crude membrane preparation; also called hIL-23R; human IL-23R; not shown: Nanoluc protein from the expression plasmid N1371 (Promega), N-terminal of IL-23R
T2 sequence (looked up): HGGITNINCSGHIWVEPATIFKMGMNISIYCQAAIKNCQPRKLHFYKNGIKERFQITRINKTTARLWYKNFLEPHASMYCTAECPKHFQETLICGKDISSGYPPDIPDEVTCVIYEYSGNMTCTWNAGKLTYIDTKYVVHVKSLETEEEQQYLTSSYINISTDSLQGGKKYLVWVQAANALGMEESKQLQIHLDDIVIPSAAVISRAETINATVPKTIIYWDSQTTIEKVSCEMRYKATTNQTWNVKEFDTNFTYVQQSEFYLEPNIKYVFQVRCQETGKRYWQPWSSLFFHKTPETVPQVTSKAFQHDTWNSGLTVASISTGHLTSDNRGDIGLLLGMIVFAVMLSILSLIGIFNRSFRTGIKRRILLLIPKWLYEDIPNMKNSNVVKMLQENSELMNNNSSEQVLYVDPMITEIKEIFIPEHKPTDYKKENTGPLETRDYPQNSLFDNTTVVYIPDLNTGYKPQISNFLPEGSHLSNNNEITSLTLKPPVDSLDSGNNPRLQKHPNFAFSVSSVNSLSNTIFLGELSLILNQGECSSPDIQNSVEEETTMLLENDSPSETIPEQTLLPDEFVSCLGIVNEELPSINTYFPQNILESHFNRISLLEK


Assays:
[1] = molecular target: T1, human IL-23R endogenously expressed on …; test: cell-based or functional assay
[2] = molecular target: T1, human IL-23R endogenously expressed on …; test: cell-based or functional assay; remark: listed apart in the source
[3] = molecular target: T2, Nluc-IL23R fusion protein; test: BRET competition vs TAMRA-labelled peptide, Nluc-IL23R membranes
[4] = molecular target: T2, Nluc-IL23R fusion protein; test: as above; remark: listed apart in the source
[5] = molecular target: T1, human IL-23R endogenously expressed on …; test: cell-based or functional assay; remark: listed apart in the source
[6] = molecular target: T1, human IL-23R endogenously expressed on …; test: cell-based or functional assay; remark: listed apart in the source
[7] = molecular target: T1, human IL-23R endogenously expressed on …; test: cell-based or functional assay; remark: listed apart in the source

Binder	IC50 (pSTAT3) [1]	hIL-23 (pSTAT3) antagonist % inhibition [2]	hIL-23 (pSTAT3) antagonist IC50 [2]	% displacement (hIL-23R binding) [3]	% displacement (hIL-23R binding) [4]	IC50 (pSTAT3) [5]	IC50 (pSTAT3) [6]	IC50 (pSTAT3) [7]	IC50 [3]
[4‑Aminomethyl‑phenylacetyl]SEWQ[Dab][AEF][2Nal][αMeL]E[Dab][d3Pal]-NH2 (lactam N-10, 3-6) [Compound 5]	2.1 nM	95%	2.1 nM	99%					
[4‑Aminomethyl‑phenylacetyl]SEWQ[Dab][AEF][2Nal][αMeL]E[Dab]-{NH(4-(3-pyridyl)butyl)} (lactam N-10, 3-6) [Compound 6]		99%	3.2 nM	103%				3.2 nM	37 pM

Results, then the binder that gave them:

IC50 (pSTAT3) [1]	hIL-23 (pSTAT3) antagonist % inhibition [2]	hIL-23 (pSTAT3) antagonist IC50 [2]	% displacement (hIL-23R binding) [3]	% displacement (hIL-23R binding) [4]	IC50 (pSTAT3) [5]	IC50 (pSTAT3) [6]	IC50 (pSTAT3) [7]	IC50 [3]	Binder
0.028 nM	99%	0.028 nM		97%	0.028 nM	0.028 nM	0.028 nM		[4‑Aminomethyl‑phenylacetyl]SEWQ[Dab][AEF][2Nal][αMeL]E[Dab][3Pal]-NH2 (lactam N-10, 3-6; SMILES CC(C)C[C@]1(C)NC(=O)[C@H](Cc2ccc3ccccc3c2)NC(=O)[C@H](Cc2ccc(OCCN)cc2)NC(=O)[C@@H]2CCNC(=O)CC[C@H](NC(=O)[C@H](CO)NC(=O)Cc3ccc(cc3)CNC(=O)CC[C@@H](C(=O)N[C@@H](CCN)C(=O)N[C@@H](Cc3cccnc3)C(N)=O)NC1=O)C(=O)N[C@@H](Cc1c[nH]c3ccccc13)C(=O)N[C@@H](CCC(N)=O)C(=O)N2) [Ref 122]
	98%	0.13 nM	102%				0.13 nM		[4‑Aminomethyl‑phenylacetyl]SEWQ[Dab][AEF][2Nal][αMeL]E[Dab]-{NH(2-(3-pyridyl)ethyl)} (lactam N-10, 3-6; SMILES CC(C)C[C@]1(C)NC(=O)[C@H](Cc2ccc3ccccc3c2)NC(=O)[C@H](Cc2ccc(OCCN)cc2)NC(=O)[C@@H]2CCNC(=O)CC[C@H](NC(=O)[C@H](CO)NC(=O)Cc3ccc(cc3)CNC(=O)CC[C@@H](C(=O)N[C@@H](CCN)C(=O)NCCc3cccnc3)NC1=O)C(=O)N[C@@H](Cc1c[nH]c3ccccc13)C(=O)N[C@@H](CCC(N)=O)C(=O)N2) [Compound 7]
6.8 nM	99%	6.8 nM	100%						[4‑Aminomethyl‑phenylacetyl]SEWQ[Dab][AEF][2Nal][αMeL]E[Dab][dH]-NH2 (lactam N-10, 3-6; SMILES CC(C)C[C@]1(C)NC(=O)[C@H](Cc2ccc3ccccc3c2)NC(=O)[C@H](Cc2ccc(OCCN)cc2)NC(=O)[C@@H]2CCNC(=O)CC[C@H](NC(=O)[C@H](CO)NC(=O)Cc3ccc(cc3)CNC(=O)CC[C@@H](C(=O)N[C@@H](CCN)C(=O)N[C@H](Cc3c[nH]cn3)C(N)=O)NC1=O)C(=O)N[C@@H](Cc1c[nH]c3ccccc13)C(=O)N[C@@H](CCC(N)=O)C(=O)N2) [Compound 13]
